Data taken from the supplement of paper PMC10567573.

B1: SLC19A2 (parent)
chain: FHHIPSTCQRVNGIKVQNGGIVTD
B2: OAS1 (parent)
chain: LQLGEGVEFDVLPAFDALGQLTGG
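Note: lentivirally expressed fusions sorted by FACS into six bins by GFP to DsRed ratio, PSI derived from sequencing read proportions per bin multiplied by bin number.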

Variants of: B1
Assay: protein stability index of a GFP-peptide fusion (GPS, HEK-293T) (PSI 1-6); higher = more stable
Conditions: c terminus: a fixed tail appended
For FHHIPSTCQRVNGIKVQNIGIVTD [G19I], the protein stability index was 3.46. Variant FHHIPSTCQRVNGIKVQNHGIVTD [G19H] has a protein stability index of 1.59. Variant FHHIPSTCQRVNGIKVQNEGIVTD [G19E] has a protein stability index of 2.81. In the case of FHHIPSTCQRVNGIKVQNCGIVTD [G19C], the protein stability index is reported as 2.34. FHHIPSTCQRVNGIKVQNSGIVTD [G19S] gave a protein stability index of 1.51. In the case of FHHIPSTCQRVNGIKVQNLGIVTD [G19L], the protein stability index is reported as 1.72. Variant FHHIPSTCQRVNGIKVQNNGIVTD [G19N] has a protein stability index of 2.37. Work on FHHIPSTCQRVNGIKVQNYGIVTD [G19Y] yielded a protein stability index of 1.74. FHHIPSTCQRVNGIKVQNRGIVTD [G19R] gave a protein stability index of 1.65. Variant FHHIPSTCQRVNGIKVQNWGIVTD [G19W] has a protein stability index of 1.62. Variant FHHIPSTCQRVNGIKVQNPGIVTD [G19P] has a protein stability index of 2.04. FHHIPSTCQRVNGIKVQNMGIVTD [G19M] showed a protein stability index of 1.27. With FHHIPSTCQRVNGIKVQNDGIVTD [G19D] the protein stability index was 2.36. With FHHIPSTCQRVNGIKVQNFGIVTD [G19F] the protein stability index was 2.25. FHHIPSTCQRVNGIKVQNKGIVTD [G19K] showed a protein stability index of 1.94. For FHHIPSTCQRVNGIKVQNVGIVTD [G19V], the protein stability index was 2.32. FHHIPSTCQRVNGIKVQNQGIVTD [G19Q] showed a protein stability index of 2.16. Variant FHHIPSTCQRVNGIKVQNAGIVTD [G19A] has a protein stability index of 1.65. Work on FHHIPSTCQRVNGIKVQNTGIVTD [G19T] yielded a protein stability index of 2.78. FHHIPSTCQRVNGIKVQNGGIGTD [V22G] showed a protein stability index of 1.56. For FHHIPSTCQRVNGIKVQNGGILTD [V22L], the protein stability index was 2.2. FHHIPSTCQRVNGIKVQNGGIKTD [V22K] gave a protein stability index of 1.77. FHHIPSTCQRVNGIKVQNGGINTD [V22N] gave a protein stability index of 2.23. Variant FHHIPSTCQRVNGIKVQNGGIFTD [V22F] has a protein stability index of 3.33. Variant FHHIPSTCQRVNGIKVQNGGIRTD [V22R] has a protein stability index of 2.19. With FHHIPSTCQRVNGIKVQNGGIDTD [V22D] the protein stability index was 2.42. With FHHIPSTCQRVNGIKVQNGGIATD [V22A] the protein stability index was 2.44. With FHHIPSTCQRVNGIKVQNGGIWTD [V22W] the protein stability index was 1.91. With FHHIPSTCQRVNGIKVQNGGIQTD [V22Q] the protein stability index was 2.18. Work on FHHIPSTCQRVNGIKVQNGGICTD [V22C] yielded a protein stability index of 1.61. In the case of FHHIPSTCQRVNGIKVQNGGITTD [V22T], the protein stability index is reported as 2.52. Variant FHHIPSTCQRVNGIKVQNGGIYTD [V22Y] has a protein stability index of 1.47. Variant FHHIPSTCQRVNGIKVQNGGIITD [V22I] has a protein stability index of 1.73. FHHIPSTCQRVNGIKVQNGGIHTD [V22H] gave a protein stability index of 2.01. FHHIPSTCQRVNGIKVQNGGIMTD [V22M] gave a protein stability index of 1.52. With FHHIPSTCQRVNGIKVQNGGIPTD [V22P] the protein stability index was 2.62. FHHIPSTCQRVNGIKVQNGGISTD [V22S] showed a protein stability index of 2.23. FHHIPSTCQRVNGIKVQNGGIETD [V22E] showed a protein stability index of 1.84. FHHIPSTCQRVNGIKVQNGNIVTD [G20N] showed a protein stability index of 2.29. FHHIPSTCQRVNGIKVQNGPIVTD [G20P] showed a protein stability index of 2.2. Work on FHHIPSTCQRVNGIKVQNGKIVTD [G20K] yielded a protein stability index of 1.87. Variant FHHIPSTCQRVNGIKVQNGRIVTD [G20R] has a protein stability index of 1.73. Work on FHHIPSTCQRVNGIKVQNGTIVTD [G20T] yielded a protein stability index of 1.76. In the case of FHHIPSTCQRVNGIKVQNGFIVTD [G20F], the protein stability index is reported as 1.65. With FHHIPSTCQRVNGIKVQNGIIVTD [G20I] the protein stability index was 1.9. Variant FHHIPSTCQRVNGIKVQNGDIVTD [G20D] has a protein stability index of 2.2. For FHHIPSTCQRVNGIKVQNGCIVTD [G20C], the protein stability index was 1.8. Variant FHHIPSTCQRVNGIKVQNGHIVTD [G20H] has a protein stability index of 2.19. FHHIPSTCQRVNGIKVQNGAIVTD [G20A] gave a protein stability index of 1.59. For FHHIPSTCQRVNGIKVQNGVIVTD [G20V], the protein stability index was 1.5. For FHHIPSTCQRVNGIKVQNGLIVTD [G20L], the protein stability index was 1.64. For FHHIPSTCQRVNGIKVQNGQIVTD [G20Q], the protein stability index was 1.8. In the case of FHHIPSTCQRVNGIKVQNGEIVTD [G20E], the protein stability index is reported as 1.95. With FHHIPSTCQRVNGIKVQNGMIVTD [G20M] the protein stability index was 2.18. With FHHIPSTCQRVNGIKVQNGSIVTD [G20S] the protein stability index was 2.34.

Variants of: B2
Assay: as above
Conditions: c terminus: a fixed tail appended
With LQLGEGVEFDVRPAFDALGQLTGG [L12R] the protein stability index was 2.69. For LQLGEGVEFDVIPAFDALGQLTGG [L12I], the protein stability index was 1.64. For LQLGEGVEFDVEPAFDALGQLTGG [L12E], the protein stability index was 3.98. Variant LQLGEGVEFDVLPAFPALGQLTGG [D16P] has a protein stability index of 2.46. Work on LQLGEGVEFDVLPAFIALGQLTGG [D16I] yielded a protein stability index of 3.52. LQLGEGQEFDVLPAFDALGQLTGG [V7Q] gave a protein stability index of 2.86. With LQLGEGIEFDVLPAFDALGQLTGG [V7I] the protein stability index was 2.84. Work on LQLGEGVEFDVLPAHDALGQLTGG [F15H] yielded a protein stability index of 3.1. For LQLGEGVEFDVLPAFDALGQLTHG [G23H], the protein stability index was 1.58. In the case of LQLGEHVEFDVLPAFDALGQLTGG [G6H], the protein stability index is reported as 2.8. For LQLGESVEFDVLPAFDALGQLTGG [G6S], the protein stability index was 2.39. With LQLGEGVEFDVLPAFDACGQLTGG [L18C] the protein stability index was 2.62. LQLGEGVEFDVLPAFDAYGQLTGG [L18Y] gave a protein stability index of 2.13. LQLGEGVEFDVLPAFDAMGQLTGG [L18M] gave a protein stability index of 1.66. Variant LQLGEGVEFDVLPAFDALHQLTGG [G19H] has a protein stability index of 1.98. In the case of LQLGPGVEFDVLPAFDALGQLTGG [E5P], the protein stability index is reported as 1.93. LQLGQGVEFDVLPAFDALGQLTGG [E5Q] showed a protein stability index of 1.64. LTLGEGVEFDVLPAFDALGQLTGG [Q2T] gave a protein stability index of 1.61. Work on LQLGEGVEFDVLPAFDALGQATGG [L21A] yielded a protein stability index of 2.22. For LQLGEGVEFDVLPAFDALGQNTGG [L21N], the protein stability index was 2.32. Variant LQLGEGVEFDVLPAFDYLGQLTGG [A17Y] has a protein stability index of 2.48. For LQLGEGVEFDVLPAFDILGQLTGG [A17I], the protein stability index was 1.53. Variant LQLGEGVEFDVLPAFDDLGQLTGG [A17D] has a protein stability index of 2.14. LQLGEGVEFDVLPAFDNLGQLTGG [A17N] gave a protein stability index of 2.28. Variant LQLGEGVEFDVLPAFDALGHLTGG [Q20H] has a protein stability index of 2.94. With LQLGEGVEFDVLPAFDALGKLTGG [Q20K] the protein stability index was 1.9. Variant LQAGEGVEFDVLPAFDALGQLTGG [L3A] has a protein stability index of 3.65. Variant LQPGEGVEFDVLPAFDALGQLTGG [L3P] has a protein stability index of 4.01. Variant LQFGEGVEFDVLPAFDALGQLTGG [L3F] has a protein stability index of 2.08. LQKGEGVEFDVLPAFDALGQLTGG [L3K] showed a protein stability index of 3.97. Variant LQGGEGVEFDVLPAFDALGQLTGG [L3G] has a protein stability index of 2.93. With LQYGEGVEFDVLPAFDALGQLTGG [L3Y] the protein stability index was 3.37. With LQNGEGVEFDVLPAFDALGQLTGG [L3N] the protein stability index was 1.72. LQLGEGVEFCVLPAFDALGQLTGG [D10C] showed a protein stability index of 2.3. Variant LQLMEGVEFDVLPAFDALGQLTGG [G4M] has a protein stability index of 2.36. Variant LQLGEGVEFDVLPAFDALGQLKGG [T22K] has a protein stability index of 2.04. In the case of LQLGEGVEFDVLPYFDALGQLTGG [A14Y], the protein stability index is reported as 1.53. Variant LQLGEGVEFDVLPCFDALGQLTGG [A14C] has a protein stability index of 1.37. In the case of LQLGEGVYFDVLPAFDALGQLTGG [E8Y], the protein stability index is reported as 2.67.
